Test results reported in patent US20080214461.
Numbering of substitutions follows the chain as printed. Numbers in names are those of the source.

T1: activated factor VIII (FVIIIa): Recombinate Antihemophilic Factor activated with thrombin, P00451
T1 chain: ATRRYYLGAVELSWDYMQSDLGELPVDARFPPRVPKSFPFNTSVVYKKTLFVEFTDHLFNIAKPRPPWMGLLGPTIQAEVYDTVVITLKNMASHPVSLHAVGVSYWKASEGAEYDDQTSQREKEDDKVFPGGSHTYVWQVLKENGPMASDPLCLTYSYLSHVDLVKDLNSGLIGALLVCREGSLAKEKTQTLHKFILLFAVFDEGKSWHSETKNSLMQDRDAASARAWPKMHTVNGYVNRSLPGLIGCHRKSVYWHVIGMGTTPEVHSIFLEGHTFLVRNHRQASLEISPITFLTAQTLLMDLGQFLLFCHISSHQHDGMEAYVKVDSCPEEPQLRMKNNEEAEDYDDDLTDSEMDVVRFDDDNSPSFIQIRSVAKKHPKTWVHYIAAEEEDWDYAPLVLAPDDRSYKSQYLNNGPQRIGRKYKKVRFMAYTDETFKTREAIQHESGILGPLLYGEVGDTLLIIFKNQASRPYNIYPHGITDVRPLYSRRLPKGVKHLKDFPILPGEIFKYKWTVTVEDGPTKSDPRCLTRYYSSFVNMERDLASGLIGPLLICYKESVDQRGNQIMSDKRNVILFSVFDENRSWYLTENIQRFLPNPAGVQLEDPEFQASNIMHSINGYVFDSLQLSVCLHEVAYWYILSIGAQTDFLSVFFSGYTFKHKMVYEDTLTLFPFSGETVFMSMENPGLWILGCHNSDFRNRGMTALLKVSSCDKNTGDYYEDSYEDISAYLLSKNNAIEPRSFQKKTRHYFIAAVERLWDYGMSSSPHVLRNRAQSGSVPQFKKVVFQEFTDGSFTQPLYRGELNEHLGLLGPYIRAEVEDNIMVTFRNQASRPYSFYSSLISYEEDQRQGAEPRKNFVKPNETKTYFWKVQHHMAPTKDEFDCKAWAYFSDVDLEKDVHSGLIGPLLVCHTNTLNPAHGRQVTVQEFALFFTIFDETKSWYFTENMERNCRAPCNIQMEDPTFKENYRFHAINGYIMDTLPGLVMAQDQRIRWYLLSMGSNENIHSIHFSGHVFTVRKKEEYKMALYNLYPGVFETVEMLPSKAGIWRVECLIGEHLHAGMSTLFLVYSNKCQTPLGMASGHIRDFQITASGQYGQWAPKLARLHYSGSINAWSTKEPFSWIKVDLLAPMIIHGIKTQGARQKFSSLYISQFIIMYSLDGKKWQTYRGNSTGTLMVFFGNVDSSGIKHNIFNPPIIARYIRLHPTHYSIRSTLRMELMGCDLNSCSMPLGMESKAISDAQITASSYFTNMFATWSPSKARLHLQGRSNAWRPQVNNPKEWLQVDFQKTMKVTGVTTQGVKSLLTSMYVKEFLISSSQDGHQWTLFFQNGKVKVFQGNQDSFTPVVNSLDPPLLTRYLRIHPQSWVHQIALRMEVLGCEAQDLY

B1: FIX-Y94F/K98T/Y177F (recombinant, full length, HEK 293), activated form (protein)
chain: YNSGKLEEFVQGNLERECMEEKCSFEEAREVFENTERTTEFWKQYVDGDQCESNPCLNGGSCKDDINSYECWCPFGFEGKNCELDVTCNIKNGRCEQFCKNSADNKVVCSCTEGYRLAENQKSCEPAVPFPCGRVSVSQTSKLTRAEAVFPDVDYVNSTEAETILDNITQSTQSFNDFTRVVGGEDAKPGQFPWQVVLNGKVDAFCGGSIVNEKWIVTAAHCVETGVKITVVAGEHNIEETEHTEQKRNVIRIIPHHNFNAAINTYNHDIALLELDEPLVLNSYVTPICIADKEYTNIFLKFGSGYVSGWGRVFHKGRSALVLQYLRVPLVDRATCLRSTKFTIFNNMFCAGFHEGGRDSCQGDSGGPHVTEVEGTSFLTGIISWGEECAMKGKYGIYTKVSRYVNWIKEKTKLT
B2: FIX-Y94F/A95aK/K98T/Y177F (recombinant, full length, HEK 293), activated form (protein)
chain: B1 chain with A261K
B3: FIX-Y94F/A95aK/K98T/Y177F/I213V/E219G (recombinant, full length, HEK 293), activated form (protein)
chain: B1 chain with A261K, I383V, E388G
B4: FIX-Y94F/K98T/Y177F/I213V/E219G (recombinant, full length, HEK 293), activated form (protein)
chain: B1 chain with I383V, E388G

Molecular target: T1, activated factor VIII (FVIIIa): …

Row | Protein | ratio kcat/KM +/- FVIIIa (FX activation)
1 | B1 | 16,424
2 | B2 | 5,705
3 | B3 | 8,354
4 | B4 | 9,581

Molecular target: factor X (FX), P00742
Sequence (P00742 whole entry, looked up): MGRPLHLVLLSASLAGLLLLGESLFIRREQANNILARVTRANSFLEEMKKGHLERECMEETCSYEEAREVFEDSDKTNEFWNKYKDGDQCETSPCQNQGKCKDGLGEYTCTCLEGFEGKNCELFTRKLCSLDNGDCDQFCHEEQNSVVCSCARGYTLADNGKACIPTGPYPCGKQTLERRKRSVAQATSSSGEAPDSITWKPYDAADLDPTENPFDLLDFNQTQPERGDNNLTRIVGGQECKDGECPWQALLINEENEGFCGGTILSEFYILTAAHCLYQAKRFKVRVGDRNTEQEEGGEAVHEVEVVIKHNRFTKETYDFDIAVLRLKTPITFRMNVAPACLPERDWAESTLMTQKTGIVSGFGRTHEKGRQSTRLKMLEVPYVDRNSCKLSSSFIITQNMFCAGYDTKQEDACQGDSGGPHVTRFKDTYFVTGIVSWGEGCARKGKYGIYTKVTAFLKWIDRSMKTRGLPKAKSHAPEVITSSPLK

Row | Protein | KM (nM), FX activation with FVIIIa | KM (nM), FX activation without FVIIIa | kcat (10^-3 min^-1), FX activation without FVIIIa | kcat (min^-1), FX activation with FVIIIa | kcat/KM (10^-6 nM^-1 min^-1), FX activation without FVIIIa | kcat/KM (nM^-1 min^-1), FX activation with FVIIIa | rate of FX activation against pdFIXa | fold increase of kcat of FX activation against pdFIX
5 | B1 | 14 nM | 68 nM | 0.02 min⁻¹ | 68 min⁻¹ | 0.000293 nM⁻¹ min⁻¹ | 5 nM⁻¹ min⁻¹ | FIX-WT and FIX-Y94F/K98T/Y177F activated FX at the same rate as pdFIXa | 
6 | B2 | 20 nM | 73 nM | 0.004 min⁻¹ | 7 min⁻¹ | 5.7e-05 nM⁻¹ min⁻¹ |  |  | 
7 | B3 | 13 nM | 55 nM | 0.061 min⁻¹ | 122 min⁻¹ | 0.00109 nM⁻¹ min⁻¹ | 9 nM⁻¹ min⁻¹ |  | enhanced the kcat by a factor of 17 and 6, respectively
8 | B4 | 17 nM | 40 nM | 0.133 min⁻¹ | 528 min⁻¹ | 0.0033 nM⁻¹ min⁻¹ | 32 nM⁻¹ min⁻¹ |  | enhanced the kcat by a factor of 17 and 6, respectively
